Values quoted from earlier work as cited in PMC12805357, “Cooperative ligand binding in a bacterial heme-based oxygen sensor” (The Journal of Biological Chemistry, 2025).

Legend:
[1] = HemAT-Bs
[2] = design: method as in earlier work; conditions: myoglobins; ref 7 of the supplement (Faulkner et al., 1995)

Molecule | n (Hill coefficient), O2 binding [1] | Kd ([1]; read-out: Kd, equilibrium oxygen affinity) | Midpoint 1 (mV vs SHE) [2]
HemAT-Bs: globin-coupled sensor from Bacillus subtilis, MCP output domain (protein, UniProt O07621 1-432, looked up) Heme-based aerotactic …: MLFKKDRKQETAYFSDSNGQQKNRIQLTNKHADVKKQLKMVRLGDAELYVLEQLQPLIQENIVNIVDAFYKNLDHESSLMDIINDHSSVDRLKQTLKRHIQEMFAGVIDDEFIEKRNRIASIHLRIGLLPKWYMGAFQELLLSMIDIYEASITNQQELLKAIKATTKILNLEQQLVLEAFQSEYNQTRDEQEEKKNLLHQKIQETSGSIANLFSETSRSVQELVDKSEGISQASKAGTVTSSTVEEKSIGGKKELEVQQKQMNKIDTSLVQIEKEMVKLDEIAQQIEKIFGIVTGIAEQTNLLSLNASIESARAGEHGKGFAVVANEVRKLSEDTKKTVSTVSELVNNTNTQINIVSKHIKDVNELVSESKEKMTQINRLFDEIVHSMKISKEQSGKIDVDLQAFLGGLQEVSRAVSHVAASVDSLVILTEE | 0.45 | 10 µM | 
hhMb: myoglobin comparison protein listed as hhMb in Table S2, literature values (protein, UniProt P68082 2-154, looked up) Myoglobin: GLSDGEWQQVLNVWGKVEADIAGHGQEVLIRLFTGHPETLEKFDKFKHLKTEAEMKASEDLKKHGTVVLTALGGILKKKGHHEAELKPLAQSHATKHKIPIKYLEFISDAIIHVLHSKHPGDFGADAQGAMTKALELFRNDIAAKYKELGFQG |  |  | 37 mV vs SHE
